Data from patent US20140249468.

Assays:
[1] = system: MMP-P4
[2] = system: MMP-P24
[3] = system: MMP-P67
[4] = system: MMP-P0
[5] = system: MMP-P12

Measured: fluorescence activation (recovery of Cy5.5 fluorescence on cleavage)

activated recombinant human MMP-13
>25-fold vs. without MMP: all assays above
